Results on 55 molecules are retold here after publication PMC9352680, “A comprehensive thermodynamic model for RNA binding by the Saccharomyces cerevisiae Pumilio protein PUF4”.

By Kd is commonly meant the free concentration of one partner at which half of the binding sites on the other are occupied at equilibrium, for simple one-to-one binding. Low values mean tighter binding, high ones weaker binding.

T1: PUF4 RNA-binding domain (Saccharomyces cerevisiae, UniProt P25339 537-888)
T1 sequence: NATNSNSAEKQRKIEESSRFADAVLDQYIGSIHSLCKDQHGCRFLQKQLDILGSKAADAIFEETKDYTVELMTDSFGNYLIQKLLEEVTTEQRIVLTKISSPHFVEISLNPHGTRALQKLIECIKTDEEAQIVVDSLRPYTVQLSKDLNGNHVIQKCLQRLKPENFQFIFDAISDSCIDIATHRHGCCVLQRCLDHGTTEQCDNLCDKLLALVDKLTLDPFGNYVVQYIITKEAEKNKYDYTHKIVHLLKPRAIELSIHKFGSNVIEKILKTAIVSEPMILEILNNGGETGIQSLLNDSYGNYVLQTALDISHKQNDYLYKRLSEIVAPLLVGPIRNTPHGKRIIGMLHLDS

B1: Ib_S2_P3E.1_K3.1_C3.1_H3.1_[T1A]_A3.1_F3.1_[A8G]_T3.1 (ssRNA)
RNA: UUUGAUUAAUAUGAUAUCGUUCUUUCUAGUAUAUGUUCUUUCUCGAUAUCAUAUUAAUCUUU
B2: Ib_S2_P3E.1_K3.1_C3.1_H3.1_[G2C]_A3.1_F3.1_[A8T]_T3.1 (ssRNA)
RNA: UUUGAUUAAUAUGAUAUCGUUCUUUCUUCUAUAUUUUCUUUCUCGAUAUCAUAUUAAUCUUU
B3: Ib_S2_P3E.1_K3.1_C3.1_H3.1_[G2C]_A3.1_F3.1_[A8C]_T3.1 (ssRNA)
RNA: UUUGAUUAAUAUGAUAUCGUUCUUUCUUCUAUAUCUUCUUUCUCGAUAUCAUAUUAAUCUUU
B4: Ib_S2_P3E.1_K3.1_C3.1_H3.1_[G2T]_A3.1_F3.1_[A8C]_T3.1 (ssRNA)
RNA: UUUGAUUAAUAUGAUAUCGUUCUUUCUUUUAUAUCUUCUUUCUCGAUAUCAUAUUAAUCUUU
B5: Ib_S2_P3E.1_K3.1_C3.1_H3.1_[T1G]_A3.1_F3.1_[A8T]_T3.1 (ssRNA)
RNA: UUUGAUUAAUAUGAUAUCGUUCUUUCUGGUAUAUUUUCUUUCUCGAUAUCAUAUUAAUCUUU

The target in the data set is T1, PUF4 RNA-binding domain. The data set can be described thus: Mg; RNA-MaP; 20 mM Na-HEPES pH 7.4, 30 mM KOAc, 0.75 mM MgCl2, 0.1% Tween-20, 5% glycerol, 0.1 mg/mL BSA, 2 mM DTT; 25 C; 0.0125-409.6 nM protein. Conditions: tags: N-His6-TEV cleaved; C-SNAP kept, Cy3B-labelled; label: tethered on chip by stalled RNA polymerase.
The molecule UCUCUUUGUAUUCCUCUAUUAUCUCUU (ssRNA) [Ie_S1_P5E.1_K5.1_C5.1_H5.1_A5.1_[+6CCTCT]_F5.1_T5.1] displayed a Kd of 66.2 nM. The value for UCUCUUUGUUCUCUAUUAUUAUCUCUU (ssRNA) [Ie_S1_P5E.1_K5.1_C5.1_H5.1_[+3TCTCT]_A5.1_F5.1_T5.1] was 85.1 nM; that for UCUCUUUGUAUCCUCUUAUUAUCUCUU (ssRNA) [Ie_S1_P5E.1_K5.1_C5.1_H5.1_A5.1_[+5CCTCT]_F5.1_T5.1] was 30.3 nM.

In turn, UCUCUUUGUAUUUCUAUUAUCUCUU (ssRNA) [Ie_S1_P5E.1_K5.1_C5.1_H5.1_A5.1_[+5TTC]_F5.1_T5.1] gave a Kd of 6.57 nM. As for UCUCUUUGUAUUACUUUAUCUCUU (ssRNA) [Ie_S1_P5E.1_K5.1_C5.1_H5.1_A5.1_[+7CT]_F5.1_T5.1], the figure is 37.3 nM.

Take UCUCUUUGUAUUACCUUAUCUCUU (ssRNA) [Ie_S1_P5E.1_K5.1_C5.1_H5.1_A5.1_[+7CC]_F5.1_T5.1]: the Kd came to 76.7 nM. UCUCUUUGUAUUUCCUUAUUAUCUCUU (ssRNA) [Ie_S1_P5E.1_K5.1_C5.1_H5.1_A5.1_[+5TTCCT]_F5.1_T5.1] registered a Kd of 30.1 nM. The value for UCUCUUUGUAUCCUUAUUAUCUCUU (ssRNA) [Ie_S1_P5E.1_K5.1_C5.1_H5.1_[+4TCC]_A5.1_F5.1_T5.1] was 11 nM; that for B1 was above 2300 nM.

Consider B2, for which binding was put at a Kd of 1310 nM. As for B3, the figure is above 2300 nM. The value for B4 was above 2300 nM.

Take B5: the Kd came to 955 nM. UCUCUUUGUUCCAUUAUUAUCUCUU (ssRNA) [Ie_S1_P5E.1_K5.1_C5.1_H5.1_[+3TCC]_A5.1_F5.1_T5.1]: the Kd is 36.5 nM. In turn, UCUCUUUGUAUUUUCCUAUUAUCUCUU (ssRNA) [Ie_S1_P5E.1_K5.1_C5.1_H5.1_A5.1_[+6TTCCT]_F5.1_T5.1] yielded a Kd of 26.7 nM. The value for UCUCUUUGUAUUAUUUAUCUCUU (ssRNA) [Ie_S1_P5E.1_K5.1_C5.1_H5.1_A5.1_F5.1_[+8T]_T5.1] was 8.84 nM; that for UCUCUUUGUCUCAUUAUUAUCUCUU (ssRNA) [Ie_S1_P5E.1_K5.1_C5.1_H5.1_[+3CTC]_A5.1_F5.1_T5.1] was 36.6 nM. The value for UCUCUUUGUCAUUAUUAUCUCUU (ssRNA) [Ie_S1_P5E.1_K5.1_C5.1_H5.1_[+3C]_A5.1_F5.1_T5.1] was 99.4 nM. In the case of UCUCUUUGUACUCUUUAUUAUCUCUU (ssRNA) [Ie_S1_P5E.1_K5.1_C5.1_H5.1_[+4CTCT]_A5.1_F5.1_T5.1], the Kd was 13.1 nM. As for UCUCUUUGUAUUUUUAUUAUCUCUU (ssRNA) [Ie_S1_P5E.1_K5.1_C5.1_H5.1_A5.1_[+6TTT]_F5.1_T5.1], the figure is 4.32 nM.

With UCUCUUUGUAUUCUUAUUAUCUCUU (ssRNA) [Ie_S1_P5E.1_K5.1_C5.1_H5.1_A5.1_[+5TCT]_F5.1_T5.1], the Kd was determined as 7.13 nM. The value for UCUCUUUGUCCUCUAUUAUUAUCUCUU (ssRNA) [Ie_S1_P5E.1_K5.1_C5.1_H5.1_[+3CCTCT]_A5.1_F5.1_T5.1] was 397 nM; that for UCUCUUUGUCUCUUAUUAUUAUCUCUU (ssRNA) [Ie_S1_P5E.1_K5.1_C5.1_H5.1_[+2TCTCT]_A5.1_F5.1_T5.1] was 332 nM. The value for UCUCUUUGUAUUCCUUUAUUAUCUCUU (ssRNA) [Ie_S1_P5E.1_K5.1_C5.1_H5.1_[+4TTCCT]_A5.1_F5.1_T5.1] was 48.5 nM. As for UCUCUUUGUUCAUUAUUAUCUCUU (ssRNA) [Ie_S1_P5E.1_K5.1_C5.1_H5.1_[+3TC]_A5.1_F5.1_T5.1], the figure is 10.9 nM; as for UCUCUUUGUUUCCAUUAUUAUCUCUU (ssRNA) [Ie_S1_P5E.1_K5.1_C5.1_H5.1_[+3TTCC]_A5.1_F5.1_T5.1], 126 nM; as for UCUCUUUGUACCUCUUUAUUAUCUCUU (ssRNA) [Ie_S1_P5E.1_K5.1_C5.1_H5.1_[+4CCTCT]_A5.1_F5.1_T5.1], 35.4 nM. The molecule UCUCUUUGUCCCAUUAUUAUCUCUU (ssRNA) [Ie_S1_P5E.1_K5.1_C5.1_H5.1_[+3CCC]_A5.1_F5.1_T5.1] had a Kd of 66.2 nM.

UCUCUUUGUAUCCCUUUAUUAUCUCUU (ssRNA) [Ie_S1_P5E.1_K5.1_C5.1_H5.1_A5.1_[+5CCCTT]_F5.1_T5.1] yielded a Kd of 60.4 nM. The value for UCUCUUUGUAUUCCUCAUUAUCUCUU (ssRNA) [Ie_S1_P5E.1_K5.1_C5.1_H5.1_A5.1_[+6CCTC]_F5.1_T5.1] was 120 nM; that for UCUCUUUGUCCUCAUUAUUAUCUCUU (ssRNA) [Ie_S1_P5E.1_K5.1_C5.1_H5.1_[+3CCTC]_A5.1_F5.1_T5.1] was 738 nM; that for UCUCUUUGUAUUUUCCAUUAUCUCUU (ssRNA) [Ie_S1_P5E.1_K5.1_C5.1_H5.1_A5.1_[+6TTCC]_F5.1_T5.1] was 51.8 nM.

UCUCUUUGUAUUCCCUAUUAUCUCUU (ssRNA) [Ie_S1_P5E.1_K5.1_C5.1_H5.1_A5.1_[+6CCCT]_F5.1_T5.1] came in with a Kd of 32.4 nM. As for UCUCUUUGUCUCUCAUUAUUAUCUCUU (ssRNA) [Ie_S1_P5E.1_K5.1_C5.1_H5.1_[+3CTCTC]_A5.1_F5.1_T5.1], the figure is 1410 nM; as for UCUCUUUGUAUUUCUCUAUUAUCUCUU (ssRNA) [Ie_S1_P5E.1_K5.1_C5.1_H5.1_A5.1_[+6TCTCT]_F5.1_T5.1], 30.9 nM; as for UCUCUUUGUACCUUUAUUAUCUCUU (ssRNA) [Ie_S1_P5E.1_K5.1_C5.1_H5.1_[+4CCT]_A5.1_F5.1_T5.1], 6.7 nM. As for UCUCUUUGUAUCUCUCUAUUAUCUCUU (ssRNA) [Ie_S1_P5E.1_K5.1_C5.1_H5.1_A5.1_[+5CTCTC]_F5.1_T5.1], the figure is 36 nM. As for UCUCUUUGUUCUCAUUAUUAUCUCUU (ssRNA) [Ie_S1_P5E.1_K5.1_C5.1_H5.1_[+3TCTC]_A5.1_F5.1_T5.1], the figure is 456 nM.

UCUCUUUGUCUUAUUAUUAUCUCUU (ssRNA) [Ie_S1_P5E.1_K5.1_C5.1_H5.1_[+3CTT]_A5.1_F5.1_T5.1] gave a Kd of 41.9 nM.

For UCUCUUUGUAUUUUCAUUAUCUCUU (ssRNA) [Ie_S1_P5E.1_K5.1_C5.1_H5.1_A5.1_[+6TTC]_F5.1_T5.1], binding was characterised by a dissociation constant (Kd) of 40.7 nM. As for UCUCUUUGUUUUAUUAUUAUCUCUU (ssRNA) [Ie_S1_P5E.1_K5.1_C5.1_H5.1_[+3TTT]_A5.1_F5.1_T5.1], the figure is 28.2 nM. As for UCUCUUUGUCCCUAUUAUUAUCUCUU (ssRNA) [Ie_S1_P5E.1_K5.1_C5.1_H5.1_[+3CCCT]_A5.1_F5.1_T5.1], the figure is 1100 nM; as for UCUCUUUGUCUCUAUUAUUAUCUCUU (ssRNA) [Ie_S1_P5E.1_K5.1_C5.1_H5.1_[+2TCTC]_A5.1_F5.1_T5.1], 405 nM; as for UCUCUUUGUACUUUUAUUAUCUCUU (ssRNA) [Ie_S1_P5E.1_K5.1_C5.1_H5.1_[+4CTT]_A5.1_F5.1_T5.1], 4.31 nM. UCUCUUUGUAUUCUCUCAUUAUCUCUU (ssRNA) [Ie_S1_P5E.1_K5.1_C5.1_H5.1_A5.1_[+6CTCTC]_F5.1_T5.1]: binding was put at a Kd of 84.4 nM. The value for UCUCUUUGUAUUAUCUUAUCUCUU (ssRNA) [Ie_S1_P5E.1_K5.1_C5.1_H5.1_A5.1_[+7TC]_F5.1_T5.1] was 15.7 nM; that for UCUCUUUGUCCCUUAUUAUUAUCUCUU (ssRNA) [Ie_S1_P5E.1_K5.1_C5.1_H5.1_[+3CCCTT]_A5.1_F5.1_T5.1] was 884 nM; that for UCUCUUUGUUUCAUUAUUAUCUCUU (ssRNA) [Ie_S1_P5E.1_K5.1_C5.1_H5.1_[+3TTC]_A5.1_F5.1_T5.1] was 22.2 nM. With UCUCUUUGUACCCUUUUAUUAUCUCUU (ssRNA) [Ie_S1_P5E.1_K5.1_C5.1_H5.1_[+4CCCTT]_A5.1_F5.1_T5.1], binding was put at a Kd of 42.3 nM. The value for UCUCUUUGUAUUCCCAUUAUCUCUU (ssRNA) [Ie_S1_P5E.1_K5.1_C5.1_H5.1_A5.1_[+6CCC]_F5.1_T5.1] was 350 nM; that for UCUCUUUGUAUUAUUUUAUCUCUU (ssRNA) [Ie_S1_P5E.1_K5.1_C5.1_H5.1_A5.1_[+7TT]_F5.1_T5.1] was 15.6 nM; that for UCUCUUUGUAUUCUCUUAUUAUCUCUU (ssRNA) [Ie_S1_P5E.1_K5.1_C5.1_H5.1_A5.1_[+5TCTCT]_F5.1_T5.1] was 29.4 nM.

On to UCUCUUUGCUCUUAUUAUUAUCUCUU (ssRNA) [Ie_S1_P5E.1_K5.1_C5.1_H5.1_[+2CTCT]_A5.1_F5.1_T5.1], for which the Kd was above 2300 nM. As for UCUCUUUGCUUUAUUAUUAUCUCUU (ssRNA) [Ie_S1_P5E.1_K5.1_C5.1_H5.1_[+2CTT]_A5.1_F5.1_T5.1], the figure is 1920 nM; as for UCUCUUUGUUUCCUAUUAUUAUCUCUU (ssRNA) [Ie_S1_P5E.1_K5.1_C5.1_H5.1_[+3TTCCT]_A5.1_F5.1_T5.1], 139 nM.
